{"source": "patent US20190336427A1", "about": "“NOVEL PROTEIN TRANSDUCTION DOMAIN AND USE THEREOF” (BIOCELTRAN CO., LTD., priority 2016, published 2019)", "key": {"[1]": {"system": "porcine skin", "test": "Skin penetration of cell-penetrating peptide-FGF2 mixture by tissue staining, Franz cells with porcine skin", "format": "in vitro ADME", "conditions": "500 μg, 24 hours", "protocol": "For skin penetration analysis of FGF2 through tissue staining, Franz cells using the porcine skin were treated with equal amounts (500 μg) of FGF2, PEP1-FGF2 and a STeP-FGF2 mixture. After 24 hours, the porcine skin between the Franz cells was taken out, washed with distilled water and subjected to tissue staining. The porcine skin site exposed to donor cells was cut and then immobilized in 10% buffered formalin to produce a paraffin block, and tissues were sectioned to 7 μm using a microtome. Then, the tissues were mounted on a slide, paraffin was removed, the residue was hydrated and tissue fragments were blocked for 30 minutes. The blocked tissues were treated with […] (cell signaling, green) and reacted at 4° C. for 18 hours. On the following day, the resulting tissues were washed with PBST, treated with an Alexa Fluor 488 secondary antibody at room temperature for 2 hours and washed with PBST again. Then, the tissue fragments were dyed with a solution of a nuclear staining reagent (DAPI) diluted at 1/5000 in PBS in the absence of light for 10 minutes and washed with PBS three times. The tissue fragments were mounted and then analyzed with a confocal scanning laser microscope."}, "[2]": {"system": "HaCaT cells", "test": "Cytotoxicity of cell-penetrating peptides (WST, cell viability)", "conditions": "HaCaT cells, 2.5, 5 and 10 μM peptide, 24 hours", "protocol": "Cytotoxicity was evaluated to identify whether or not the peptides of the present invention could be harmlessly used to deliver polymers in vivo.\nHaCaT cells cultured in DMEM containing 10% FBS were seeded in a unit dose of 2.5×10^4 on a 96-well plate, cultured for 24 hours and washed with HBSS twice. Cell-penetrating peptides, PEP1 and STeP, were dissolved at different concentrations of 50 μM, 100 μM and 200 μM in D.W. and diluted in a medium such that the final concentrations reached 2.5 μM, 5 μM and 10 μM, and the cells were treated with the resulting peptides and then reacted for 24 hours at 37° C. in a 5% CO2 incubator. After culture, the supernatant was removed, a WST solution was diluted in a medium in a ratio of 1:9 and the cells were treated with the medium. After culturing for 3 hours, absorbance was measured at 450 nm, and cell viability was calculated for cells of a peptide non-treatment group and cells of a peptide treatment group."}, "[3]": {"target": "EGF receptors in cells (mouse fibroblasts, Balb/c 3T3 clone A31 cells) (mouse) (UniProt Q01279)", "test": "cell-based or functional assay"}, "[4]": {"system": "porcine skin", "test": "Skin penetration of cell-penetrating peptide-FITC mixture, Franz cells with porcine skin", "format": "in vitro ADME", "conditions": "100 μM mixture, FITC:peptide molar ratio 1:0 and 1:2", "protocol": "Franz cells (diameter of 9 mm) were used in order to identify whether or not penetration of FITC into the skin as well as cells was improved under the condition of non-covalent bonding to STeP.\nFITC and cell-penetrating peptides (PEP1, STeP) dissolved in borax buffer (pH 8.0) were prepared. The FITC and cell-penetrating peptides (PEP1, STeP) were mixed in a molar ratio of 1:0 and 1:2, and reacted at 37° C. for 30 minutes, and the top of Franz cells were treated with 100 μM of the finally obtained cell-penetrating peptide-FITC mixture. The porcine skin was isolated and washed with PBS three times. After washing, the cryo mold was treated with an OCT embedding matrix (Cell Path Ltd., UK) and tissues were frozen at −70° C. The frozen tissues were cross-sectioned to a thickness of 7 μm at −20° C. using a cryotome (HM520, Germany) to produce fragment slides. To dye the nucleus of the skin cells, tissue fragments fixed to a slide glass were dyed with a solution of a nuclear staining reagent (DAPI) diluted at 1/5000 in PBS in the absence of light for 10 minutes and washed with PBS three times. The resulting cells were mounted and then analyzed with a confocal scanning laser microscope."}}, "note": "Ends that are not written are not given here.", "data": [{"substance": "FGF2: fibroblast growth factor-2, basic fibroblast growth factor", "values": [{"measurement": "skin penetration of FGF2 (delivery into porcine skin tissues)", "setting": "[1]", "value": "not delivered into porcine skin tissues at all"}]}, {"substance": "KETWWETWWTEWSQPYGRKKRRQRRRC [STeP]", "values": [{"measurement": "cytotoxicity (cell viability)", "setting": "[2]", "value": "did not exhibit cytotoxicity"}]}, {"substance": "PEP1-EGF recombinant protein (from UniProt P01133 23-1207) (ligand)", "values": [{"measurement": "Cell proliferation activity (unit/mM), WST assay on Balb/c 3T3 clone A31 cells", "setting": "[3]", "value": "1.39e+07", "unit": "unit/mM"}]}, {"substance": "fluorescein isothiocyanate [FITC]", "values": [{"measurement": "skin penetration of FITC", "setting": "[4]", "value": "present in the cornified layer of the porcine skin"}]}]}
